Results on 4 molecules are retold here after patent US20040005671A1 (ZENYTH OPERATIONS, published 2004).

To fix the notation:
T1: VEGF-B186 (recombinant mature human, N-terminal His6-tagged, refolded homodimer from E. coli) (human, UniProt P49765 22-207, Refolded homodimer; one protomer given.)
T1 construct: not shown: N-terminal His6 tag coded by the pET15b vector
T1 sequence: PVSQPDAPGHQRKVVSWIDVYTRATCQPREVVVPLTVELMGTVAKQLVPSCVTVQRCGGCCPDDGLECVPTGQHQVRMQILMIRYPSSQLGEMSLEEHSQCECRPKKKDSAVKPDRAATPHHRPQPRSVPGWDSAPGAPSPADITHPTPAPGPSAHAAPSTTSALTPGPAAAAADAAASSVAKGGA

B1: VEGF-B10-108 (truncated mature human VEGF-B, N-terminal His6-tagged, refolded homodimer from E. coli) (ligand, UniProt P49765 31-129, looked up)
chain: HQRKVVSWIDVYTRATCQPREVVVPLTVELMGTVAKQLVPSCVTVQRCGGCCPDDGLECVPTGQHQVRMQILMIRYPSSQLGEMSLEEHSQCECRPKKK
notes: not shown: additional 16 amino acids at the N-terminus which incorporate a His6 tag and a Genenase I cleavage site (pQE30)
B2: VEGF-R1D2 (Ig domain 2 of human VEGF-R1, residues 129-229, from E. coli) (receptor, UniProt P17948 129-229, looked up)
chain: SDTGRPFVEMYSEIPEIIHMTEGRELVIPCRVTSPNITVTLKKFPLDTLIPDGKRIIWDSRKGFIISNATYKEIGLLTCEATVNGHLYKTNYLTHRQTNTI
notes: range 129-229; Cloned into pQE30; also called Flt-1 domain 2

Experiment [1] deals with VEGF-R1-(hflt1-4)gp130 fusion: chimeric receptor of human VEGF-R1 Ig domains 1 to 4 with the transmembrane and cytoplasmic domains of gp130, on clone 2.1.19.25 cells (human). The experiment can be described thus: cell-based or functional assay.
For experiment [2] the target is unchanged.
For experiment [3], the target named is VEGF-R1D2 (Ig domain 2 of human VEGF-R1, residues 129-229, from E. coli) (human) (UniProt P17948). The experiment can be described thus: SPR (Biacore), VEGF-B immobilised on a CM5 chip, VEGF-R1D2 in solution, Scatchard analysis at steady state. On the technique in general: SPR reads the build-up and loss of mass on a sensor chip optically.
Experiment [4] has as its target B2. The experiment is described as above. The method, then: (§1) For initial Biosensor analysis of the binding of the purified and refolded VEGF-B3 isoforms, surface plasmon resonance (Biosensor 2000; Biacore, Sweden) and recombinant VEGF-R1D2 are used. […] The three forms of VEGF-B were immobilized on separate channels of a CM5 sensor chip, while murine LIF was immobilized to a fourth channel to serve as a negative control. Interaction with VEGF-R1D2 was monitored on all channels simultaneously.
(§2) Purified VEGF-R1D2 is diluted to varying concentrations in 0.1% w/v BSA, 20 mM HEPES, 0.15 M NaCl, 0.005% w/v Tween 20, 3.4 mM EDTA, pH 7.4. […] Scatchard analysis is used to determine binding kinetics at steady state equilibrium.

Experiment [5] has as its target T1, VEGF-B186 (recombinant mature human, …). The experiment is described as above. The method, then:
as §1, §2

Sequence of VEGF-R1-(hflt1-4)gp130 fusion: chimeric receptor of human VEGF-R1 Ig domains 1 to 4 with the transmembrane and cytoplasmic domains of gp130, on clone 2.1.19.25 cells (human) (chain, as listed by the source mutant limits assumed, form in doubt): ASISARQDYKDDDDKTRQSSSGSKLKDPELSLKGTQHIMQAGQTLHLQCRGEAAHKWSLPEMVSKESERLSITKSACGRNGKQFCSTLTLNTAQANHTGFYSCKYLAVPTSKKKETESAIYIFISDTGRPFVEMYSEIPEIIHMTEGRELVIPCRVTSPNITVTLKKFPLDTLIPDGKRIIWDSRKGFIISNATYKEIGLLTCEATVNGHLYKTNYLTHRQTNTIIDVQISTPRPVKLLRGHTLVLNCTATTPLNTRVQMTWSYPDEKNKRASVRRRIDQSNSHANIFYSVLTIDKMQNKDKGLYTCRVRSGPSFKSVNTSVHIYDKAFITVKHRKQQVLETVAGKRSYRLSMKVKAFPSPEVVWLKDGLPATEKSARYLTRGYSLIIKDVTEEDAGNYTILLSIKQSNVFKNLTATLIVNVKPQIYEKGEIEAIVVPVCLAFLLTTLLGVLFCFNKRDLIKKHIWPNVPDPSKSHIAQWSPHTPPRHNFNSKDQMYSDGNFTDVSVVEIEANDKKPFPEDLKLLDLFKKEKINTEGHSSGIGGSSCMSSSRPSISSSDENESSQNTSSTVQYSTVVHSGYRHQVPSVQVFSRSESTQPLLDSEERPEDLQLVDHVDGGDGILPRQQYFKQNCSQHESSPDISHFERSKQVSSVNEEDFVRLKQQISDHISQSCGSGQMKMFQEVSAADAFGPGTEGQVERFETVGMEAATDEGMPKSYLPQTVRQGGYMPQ

With VEGF-A (ligand), the luciferase, signal to background ratio, clone 2.1.19.25 cells in experiment [1] lay within 2.5 to 3.

“VEGF-B167 (recombinant, N-terminal His6-tagged, refolded homodimer from E. coli) (from UniProt P49765 22-207) (ligand)”: in experiment [2], the EC50 (read off the curve) (luciferase reporter, clone 2.1.19.25 cells; VEGF-B167 titrated in the presence of the control mAb at 50 µg/ml) came to 0.3 µg/mL. The ED50, luciferase, 2.1.19.25 cell-based assay in experiment [1] lay in the range of 0.15 to 0.3 µg/mL. In experiment [3], this molecule yielded a Kd of 1.5 nM. For the molecule B1, the dissociation constant (Kd) in experiment [4] was found to be 0.8 nM. Regarding B2, the Kd in experiment [5] came to 2 nM.

Broadly, the Kd is the concentration at which binding is half-saturated.
